In US20250074943A1 (Amgen, published 2025):
Several values for one entry are separate records, joined by “and”; a condition that tells them apart may be missing. Equal entries are not always repeated. Bridge positions count the residues as written; N and C are the ends. Ends that are not written are not given here.

T1: recombinant DLL3 ectodomain (rhDLL3-Fc) (human, UniProt Q9NYJ7 27-492, biotinylated (NHS-LC-LC-biotin) in the BLI and SPR assays)
T1 construct: also called rDLL3-Fc; recombinant human DLL3 (rDLL3); not shown: Fc part
T1 sequence: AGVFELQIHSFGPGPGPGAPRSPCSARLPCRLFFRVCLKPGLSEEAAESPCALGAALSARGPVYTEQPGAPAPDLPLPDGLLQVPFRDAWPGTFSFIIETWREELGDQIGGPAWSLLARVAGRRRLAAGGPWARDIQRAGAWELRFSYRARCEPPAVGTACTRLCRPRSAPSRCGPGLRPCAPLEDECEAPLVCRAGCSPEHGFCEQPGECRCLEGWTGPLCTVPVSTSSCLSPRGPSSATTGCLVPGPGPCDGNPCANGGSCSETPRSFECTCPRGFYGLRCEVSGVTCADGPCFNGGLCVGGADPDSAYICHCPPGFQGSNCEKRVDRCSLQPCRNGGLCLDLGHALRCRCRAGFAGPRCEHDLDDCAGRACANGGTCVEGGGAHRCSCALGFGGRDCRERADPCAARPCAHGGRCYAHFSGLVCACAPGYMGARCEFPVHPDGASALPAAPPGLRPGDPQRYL

T2: human DLL3 expressed on the surface of cells (human, UniProt Q9NYJ7 27-618)
T2 construct: Stably transfected CHO or HEK293 cells; also called huDLL3; hDLL3
T2 sequence: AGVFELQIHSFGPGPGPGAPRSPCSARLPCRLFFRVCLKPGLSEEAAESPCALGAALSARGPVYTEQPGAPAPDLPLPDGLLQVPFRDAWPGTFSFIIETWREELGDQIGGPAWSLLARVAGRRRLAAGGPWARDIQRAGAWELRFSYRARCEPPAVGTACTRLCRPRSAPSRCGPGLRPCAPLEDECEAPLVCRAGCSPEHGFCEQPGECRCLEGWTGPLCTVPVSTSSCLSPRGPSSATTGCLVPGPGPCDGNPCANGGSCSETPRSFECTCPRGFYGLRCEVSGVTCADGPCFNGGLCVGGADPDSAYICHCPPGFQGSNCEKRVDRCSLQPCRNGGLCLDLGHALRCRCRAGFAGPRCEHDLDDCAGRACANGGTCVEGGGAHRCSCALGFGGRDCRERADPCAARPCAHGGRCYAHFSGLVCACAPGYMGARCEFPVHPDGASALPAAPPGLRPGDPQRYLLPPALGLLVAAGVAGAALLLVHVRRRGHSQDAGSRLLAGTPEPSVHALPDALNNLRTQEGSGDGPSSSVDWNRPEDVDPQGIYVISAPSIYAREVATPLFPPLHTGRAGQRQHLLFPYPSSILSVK


Tests used:
[1] = target: T1, recombinant DLL3 ectodomain (rhDLL3-Fc); assay: BLI (Octet), biotinylated rhDLL3-Fc on streptavidin sensors
Experimental: Binding kinetic assays were performed using Bio-layer interferometry (BLI) technology. The recombinant DLL3 ectodomain (rhDLL3-Fc) was biotinylated using EZ-Link Sulfo-NHS-LC-LC-Biotin Kit according to the manufacturer's protocol (Pierce by Thermo Fisher Scientific). The recombinant protein was incubated with an excess of NHS-LC-LC Biotin ester, in a molar ratio of 1:3 (protein: biotin), at 25° C. for 90 min. The un-reacted biotin ester was removed by subsequent buffer exchange on 0.5 ml Zeba spin desalting columns 7K MWCO (Pierce by Thermo Fisher Scientific).

[2] = target: T1, recombinant DLL3 ectodomain (rhDLL3-Fc); assay: phage ELISA on rDLL3-Fc
Experimental: The pools of phages obtained after each round of selection were tested by Phage-ELISA for their binding to rDLL3-Fc and counter-screened on hIgG-Fc. Briefly, proteins were immobilized on NUNC-Maxisorp ELISA plates. Then the plates were washed and blocked. 100 μl of pre-blocked phages were added to the blocked plate and incubated for 1 hr at room temperature. Anti-M13 HRP conjugated mAb were added and the plates were read on a Multiskan Ascent (Thermo) Elisa reader at A370 nm after the addition of TMB (Sigma).

[3] = target: T2, human DLL3 expressed on the surface of …; assay: phage cell ELISA/FACS on DLL3-expressing cells;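 also: phages incubated 1 h at room temperature with cells overexpressing human DLL3, read by flow cytometry fluorescence, then fixed-cell ELISA with anti-M13-HRP at A370 nm, parental cells alongside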
Experimental: The pools of phages were also screened for their binding to cells overexpressing human DLL3 on their surface. Cells were detached, counted and re-suspended at 1.8×10⁶ cell/ml in FACS buffer containing 2% FBS. Pre-blocked phages were then added to the cells and incubated for 1 hr at room temperature. […] Cells were then washed and re-suspended into FACS buffer. Fluorescence was acquired using a flow cytometer (FACS Canto/Becton Dickinson).
Phage clones with signal higher than four-fold above the background were further tested for their binding to DLL3 on the surface of cells expressing DLL3 by cell ELISA. Briefly, parental cells and cells overexpressing DLL3 were plated on 96 well plate the day before the assay. The cells were then fixed and washed before the addition of pre-blocked phages as previously described. The cells were then washed and anti-M13-HRP was added. The signal was measured using a Multiskan Ascent (Thermo) ELISA reader at A370 nm.

Binder | Kd [1] | RT (residence time) [1] | binding result [2] | binding result [3]
AETVEFWTCYWTEGVSGCRW-NH2 (disulfide 9-18 (inferred)) [PepSP1151] | 125 nM | 167 s | – | –
AETVEFWSCHYSYWTVSCGT-NH2 (disulfide 9-18 (inferred)) [PepSP1157] | 123 nM | 89 s | – | –
AETVEFYGCSMDWRGVTCAW-NH2 (disulfide 9-18 (inferred)) [PepSP1158] | 643 nM | 31 s | – | –
AETVEFDYCLWAPDAWGCQN-NH2 (disulfide 9-18) [PepSP1159] | 900 nM | 6 s | – | –
AETVEFLGCHGDNSEWTCVW-NH2 (disulfide 9-18 (inferred)) [PepSP1163] | 69 nM and 68.7 nM | 167 s | – | –
AETVEFYGCTGDAYEYTCTW-NH2 (disulfide 9-18 (inferred)) [PepSP1147] | 59 nM | 65.6 s | – | –
AETVEYWRCDWYEETVACGT-NH2 (disulfide 9-18 (inferred)) [PepSP1155] | 155 nM | 177 s | – | –
AETVEFDYCYGDVEEWTCVY-NH2 (disulfide 9-18 (inferred)) [PepSP1166] | 145 nM | 48 s | – | –
AETVEFYGCKWDWKGWTCAW-NH2 (disulfide 9-18 (inferred)) [PepSP1168] | 568 nM | 44 s | – | –
AETVEFYGCYGEQEQWTCLW-NH2 (disulfide 9-18 (inferred)) [PepSP1173] | 106 nM | 101 s | – | –
AETVEFYGCSVNADGWTCSW-NH2 (disulfide 9-18 (inferred)) [PepSP1170] | 166 nM | 43 s | – | –
AETVEFRGCTGNVYDWTCVW-NH2 (disulfide 9-18 (inferred)) [PepSP1160] | 494 nM | 47 s | – | –
AETVEFYGCRGGDGEWTCVW-NH2 (disulfide 9-18 (inferred)) [PepSP1165] | 263 nM | 66 s | – | –
AETVEFDGCKGDWYEWTCWW-NH2 (disulfide 9-18 (inferred)) [PepSP1164] | 125 nM | 125 s | – | –
AETVEFWTCHGNADEWTCSW-NH2 (disulfide 9-18 (inferred)) [PepSP1162] | 159 nM | 51 s | – | –
AETVEFYGCETYSGGWTCLW-NH2 (disulfide 9-18 (inferred)) [PepSP1167] | 399 nM | 47 s | – | –

More lines, now with the values ahead:

Kd [1] | RT (residence time) [1] | binding result [2] | binding result [3] | Binder
147 nM | 75.9 s | – | – | AETVEFYGCYGDRNDYTCTW-NH2 (disulfide 9-18 (inferred)) [PepSP1178]
– | – | binds | binds | AETVEFDGCKGDWYEWTCWW (not shown: M13 pIII coat protein) [SEQ ID NO 53]
– | – | binds | binds | AETVEFYGCYGDRNDYTCTW (not shown: M13 pIII coat protein) [SEQ ID NO 42]
– | – | binds | binds | AETVEFWTCHGNADEWTCSW (not shown: M13 pIII coat protein) [SEQ ID NO 52]
236 nM | 52 s | – | – | AETVEFYGCWGNYNDYTCSW-NH2 (disulfide 9-18 (inferred)) [PepSP1177]
– | – | binds | binds | AETVEFYGCRGGDGEWTCVW (not shown: M13 pIII coat protein) [SEQ ID NO 54]
– | – | binds | binds | AETVEFYGCSMDWRGVTCAW (not shown: M13 pIII coat protein) [SEQ ID NO 49]
– | – | binds | binds | AETVEYWRCDWYEETVACGT (not shown: M13 pIII coat protein) [SEQ ID NO 47]
– | – | binds | binds | AETVEFRGCTGNVYDWTCVW (not shown: M13 pIII coat protein) [SEQ ID NO 51]
7500 nM | 1.36 s | – | – | WGCTGTWGNETCWW-NH2 (disulfide 3-12 (inferred), PepSP1146 without AETVEF) [PepSP1213]
– | – | binds | binds | AETVEFWSCKWWGGAADEYTYSCGW (not shown: M13 pIII coat protein) [SEQ ID NO 44]
207 nM | 67 s | – | – | AETVEFYGCQYYGWDYTCAW-NH2 (disulfide 9-18 (inferred)) [PepSP1176]
– | – | binds | binds | AETVEFWTCYWTEGVSGCRW (not shown: M13 pIII coat protein) [SEQ ID NO 46]
– | – | binds | binds | AETVEFDYCYGDVEEWTCVY (not shown: M13 pIII coat protein) [SEQ ID NO 55]
75.8 nM | 96.6 s | – | – | AETVEFWSCKWWGGAADEYTYSCGW-NH2 (disulfide 9-23 (inferred)) [PepSP1182]
– | – | binds | binds | AETVEFYGCKWDWKGWTCAW (not shown: M13 pIII coat protein) [SEQ ID NO 57]
– | – | binds | binds | AETVEFWDCWGNTDDWTCTW (not shown: M13 pIII coat protein) [SEQ ID NO 41]
– | – | binds | binds | AETVEFLGCHGDNSEWTCVW (not shown: M13 pIII coat protein) [SEQ ID NO 43]
– | – | binds | binds | AETVEFYGCTGDAYEYTCTW (not shown: M13 pIII coat protein) [SEQ ID NO 45]
– | – | binds | binds | AETVEFWSCHYSYWTVSCGT (not shown: M13 pIII coat protein) [SEQ ID NO 48]
– | – | binds | binds | AETVEFYGCETYSGGWTCLW (not shown: M13 pIII coat protein) [SEQ ID NO 56]
181 nM | 20 s | – | – | WDCWGNTDDWTCTW-NH2 (disulfide 3-12 (inferred), PepSP1161 without AETVEF) [PepSP1269]
